Assay results published in US6146862A.

Substrate: NC(=O)C1=CN([C@@H]2O[C@H](COP(=O)(O)OP(=O)(O)OC[C@H]3O[C@@H](n4cnc5c(N)ncnc54)[C@H](O)[C@@H]3O)[C@@H](O)[C@H]2O)C=CC1
Assay: purified protein, by the assay type
Details: other: recombinant enzyme purified from E. coli JM109/pSDE1, assay 50 mM Tris-HCl pH 8.5, 0.06 mM DCIP, 30° C.

B1: Bacillus stearothermophilus UK-563 thermostable diaphorase, recombinant (E. coli JM109/pSDE1), SEQ ID No.1 (Geobacillus stearothermophilus) (protein)
chain: MTNVLYITAHPHDDTQSYSMAVGKAFIDTYKQVHPDHEVIHLDLYKEYIPEIDVDVFSGWGKLRSGKSFEELSDEEKAKVGRMNELCEQFISADKYVFVTPMWNFSFPPVLKAYIDAVAVAGKTFKYTEQGPVGLLTDKKALHIQARGGFYSEGPAAEMEMGHRYLSVIMQFFGVPSFEGLFVEGHAAVPEKAEEIKANAIARAKDLAHTF
Km: 0.5 mM
